These results are taken from article PMC9090809 (2022).

The assay deals with LC3-trap Wx8 (covalently labelled with an N-hydroxysuccinimide (RED-NHS) dye in the MST). Nature of the assay: MST.

B1: recombinant LC3C (natural protein)
chain: MPPPQKIPSVRPFKQRKSLAIRQEEVAGIRAKFPNKIPVVVERYPRETFLPPLDKTKFLVPQELTMTQFLSIIRSRMVLRATEAFYLLVNNKSLVSMSATMAEIYRDYKDEDGFVYMTYASQETFG
For B1, the affinity, expressed as Kd, was 0.0034 µM.

B2: recombinant GABARAP (natural protein)
chain: MKFVYKEEHPFEKRRSEGEKIRKKYPDRVPVIVEKAPKARIGDLDKKKYLVPSDLTVGQFYFLIRKRIHLRAEDALFFFVNNVIPPTSATMGQLYQEHHEEDFFLYIAYSDESVYGL
B2 had a dissociation constant (Kd) of 0.0248 µM.

Broadly, the Kd is the equilibrium constant for the complex coming apart.
